From US20260297187 (published 2026)
Like-named read-outs stand apart in the source and are kept apart here.

T1: CEACAM1-his (human)
T1 chain: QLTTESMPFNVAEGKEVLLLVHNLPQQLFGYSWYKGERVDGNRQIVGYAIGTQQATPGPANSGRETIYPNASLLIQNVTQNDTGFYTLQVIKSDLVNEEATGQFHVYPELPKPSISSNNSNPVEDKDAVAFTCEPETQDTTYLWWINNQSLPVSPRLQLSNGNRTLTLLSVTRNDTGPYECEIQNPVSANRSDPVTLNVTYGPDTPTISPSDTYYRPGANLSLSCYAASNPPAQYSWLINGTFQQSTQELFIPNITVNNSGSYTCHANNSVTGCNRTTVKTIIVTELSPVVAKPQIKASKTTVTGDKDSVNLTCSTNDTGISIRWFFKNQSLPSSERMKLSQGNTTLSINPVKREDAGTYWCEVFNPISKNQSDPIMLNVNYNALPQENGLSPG

T2: CEACAM6 (human, UniProt P40199)
T2 chain: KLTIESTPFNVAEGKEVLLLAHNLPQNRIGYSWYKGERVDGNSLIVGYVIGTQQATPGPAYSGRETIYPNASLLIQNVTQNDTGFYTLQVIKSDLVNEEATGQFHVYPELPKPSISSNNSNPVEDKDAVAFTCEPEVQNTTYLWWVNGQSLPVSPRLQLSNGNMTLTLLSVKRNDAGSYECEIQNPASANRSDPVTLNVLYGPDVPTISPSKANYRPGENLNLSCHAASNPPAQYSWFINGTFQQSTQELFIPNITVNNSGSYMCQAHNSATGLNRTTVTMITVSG

T3: CEACAM3 (human, UniProt P40198)
T3 chain: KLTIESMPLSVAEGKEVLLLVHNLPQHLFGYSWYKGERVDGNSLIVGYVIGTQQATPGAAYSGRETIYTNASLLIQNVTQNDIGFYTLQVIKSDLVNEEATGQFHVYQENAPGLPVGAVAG


What was measured:
CEACAM1 (cell surface) [1] = biological target: CEACAM1 (cell surface) (human); experiment: FACS, Raji-CEACAM1
CEACAM1-his [2] = biological target: T1, CEACAM1-his; experiment: BLI
CEACAM1 (cell surface) [3] = biological target: CEACAM1 (cell surface) (human); experiment: FACS, BxPC-3
CEACAM1-his [4] = biological target: T1, CEACAM1-his; experiment: BLI
CEACAM1 (cell surface) [5] = biological target: CEACAM1 (cell surface) (human); experiment: FACS, HepG2
CEACAM1-his [6] = biological target: T1, CEACAM1-his; experiment: BLI
CEACAM1-his [7] = biological target: T1, CEACAM1-his; experiment: BLI
CEACAM6 = biological target: T2, CEACAM6; experiment: BLI
CEACAM3 = biological target: T3, CEACAM3; experiment: BLI

CEACAM1 (cell surface) (human), sequence (chain, as listed by the source): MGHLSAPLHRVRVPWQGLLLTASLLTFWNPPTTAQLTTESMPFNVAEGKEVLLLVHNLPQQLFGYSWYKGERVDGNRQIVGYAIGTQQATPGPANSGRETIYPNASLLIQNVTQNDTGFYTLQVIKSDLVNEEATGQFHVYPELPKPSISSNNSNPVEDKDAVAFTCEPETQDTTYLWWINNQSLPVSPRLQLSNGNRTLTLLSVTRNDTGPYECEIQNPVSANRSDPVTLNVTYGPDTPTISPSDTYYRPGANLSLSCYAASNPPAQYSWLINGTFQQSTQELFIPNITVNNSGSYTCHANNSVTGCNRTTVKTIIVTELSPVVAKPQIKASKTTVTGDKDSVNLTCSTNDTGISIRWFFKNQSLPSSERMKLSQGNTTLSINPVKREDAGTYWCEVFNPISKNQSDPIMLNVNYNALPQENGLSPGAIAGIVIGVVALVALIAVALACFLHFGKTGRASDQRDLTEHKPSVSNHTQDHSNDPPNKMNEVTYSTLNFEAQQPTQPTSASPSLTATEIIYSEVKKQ

EC50 (CEACAM1 (cell surface) [1])	Kd (CEACAM1-his [2])	EC50 (CEACAM1 (cell surface) [3])	Kd (CEACAM1-his [4])	EC50 (CEACAM1 (cell surface) [5])	Kd (CEACAM1-his [6])	Kd (CEACAM1-his [7])	binding result (CEACAM6)	binding result (CEACAM3)	Binder
0.0699 µg/mL	1.7 nM	0.0263 µg/mL	2.65 nM	0.039 µg/mL	1.7 nM				h4D10.G4.H4L2 (antibody, V domains shown) VH: QVQLVQSGAEVKKPGASVKVSCKASGYTFSSYVIHWVRQAPGQGLEWMGYFNPYNNGTNYNENFKGRVTMTADTSTSTVYMELSSLRSEDTAVYYCARYYYASGSLYFDYWGQGTTVTVSS VL: DIQMTQSPSTLSASVGDRVTITCSASSSVSYMHWYQQKPGKAPKPLIYEISKLASGVPSRFSGSGSGTEFTLTISSLQPDDAATYYCQQWNYPLITFGGGTKVEIK
	3.68 nM	0.0723 µg/mL		0.0974 µg/mL	3.68 nM				h9D12.G4.H0bL7 (antibody, V domains shown) VH: QVQLVQSGAEVKKPGASVKVSCKASGFNIKDTYMHWVRQAPGQGLEWMGRIDLASGDSKYDPKFQGRVTMTRDTSTSTVYMELSSLRSEDTAVYYCARAHFGGGNWYFDVWGQGTTVTVSS VL: DIQLTQSPSFLSASVGDRVTITCSASSSVSYMHWYQQKPGQAPKPWIYEISKLASGVPSRFSGSGSGTEYTLTISSMQSEDFAVYYCQQWNYPLTFGQGTKLEIK
0.0862 µg/mL	1.83 nM	0.031 µg/mL		0.0491 µg/mL	1.83 nM				h2C10.G4.H0aL4 (antibody, V domains shown) VH: QVQLVQSGAEVKKPGASVKVSCKASGFAFTNYLIEWVRQAPGQGLEWMGVLNPGSGATNYNEKFKGRVTMTRDTSISTAYMELSRLRSDDTAVYYCARGIYGGYFAMDYWGQGTLVTVSS VL: DIQMTQSPSSLSASVGDRVTITCRASQDITTYLNWYQQKPGGAPKLLIYYTSRLHSGVPSRFSGSGSGTDFTLTISSLQPEDIATYYCQQGNTLPRTFGGGTKLEIK
0.0746 µg/mL	0.85 nM	0.0464 µg/mL		0.0684 µg/mL	0.85 nM				h2C10.G4.H0aL2 (antibody, V domains shown) VH: QVQLVQSGAEVKKPGASVKVSCKASGFAFTNYLIEWVRQAPGQGLEWMGVLNPGSGATNYNEKFKGRVTMTRDTSISTAYMELSRLRSDDTAVYYCARGIYGGYFAMDYWGQGTLVTVSS VL: DIQMTQSTSSLSASVGDRVTITCRASQDITTYLNWYQQKPGGAPKLLIYYTSRLHSGVPSRFSGSGSGTDYTLTISSLQPEDIATYYCQQGNTLPRTFGGGTKLEIK
						0.955 nM	no binding	no binding	2C10 (antibody, V domains shown) VH: QVQLQQSGAELVRPGTSVKVSCKASGFAFTNYLIEWVKQRPGQGLEWIGVLNPGSGATNYNEKFKGKATLTADKSSSTAYMQLSSLTSDDSAVYFCARGIYGGYFAMDYWGQGTSVTVSS VL: DIQMTQTTSSLSASLGDRVTISCRASQDITTYLNWYQQRPDGTVKLLIYYTSRLHSGVPSRFSGSGSGTEYSLTISNLEQEDIATYFCQQGNTLPRTFGGGTKLEIR
						2.9 nM	no binding		9D12 (antibody, V domains shown) VH: EVQLQQSGAELVKPGASVKLSCTASGFNIKDTYMHWVKQRPEQGLEWIGRIDLASGDSKYDPKFQGKATITADTSSNTAYLQFSSLTSEDTAVYYCARAHFGGGNWYFDVWGAGTTVTVSS VL: EIVLTQSPAITAASLGQKVTITCSASSSVSYMHWYQQKSGTSPKPWIYEISKLASGVPARFSGSGSGTSYSLTISSMEAEDAAIYYCQQWNYPLTFGAGTKLELK
						6.97 nM	no binding		7D4 (antibody, V domains shown) VH: EVQLQQSGAELVRPGASVKLSCTASGFNLKDTYMHWVKQRPEQGLEWIGRIDPSDGDTKYGPKFQDKTTITADTSSNTAYLQLSSLTSEDAAVYYCARAHFGGGGWYFDVWGAGTTVTVSS VL: EIVLTQSPAITAASLGQKVTITCSASSSVGYMHWYQQKSGTSPKPWIYEISKLASGVPARFSGSGSGTSYSLTIRNMEAEDAAIYYCQQWNYPLTFGAGTKLELK
